Experimental data taken from patent publication US20240174727A1, “LONG-ACTING NATRIURETIC PEPTIDES AND USES THEREOF” (Eli Lilly and Company, priority 2022, published 2024).
Numbered stars: 1 amine (or outer) side, 2 acyl side, 3 side chain; on linkers, the order of the positions; unused ones are H or OH. Bridge positions count the residues as written; N and C are the ends. Square brackets hold non-standard residues; d marks the D form. * marks the point of attachment. thioacetal = thioacetal linkage between two cysteines (intrachain bond at the bracketed Cys); C20 diacid = O=C(O)CCCCCCCCCCCCCCCCCCC(=O)*; C16 diacid = O=C(O)CCCCCCCCCCCCCCC(=O)*; γGlu = O=C(O)[C@H](CCC(=O)[*:2])N[*:1]; 4Pal = N[C@@H](Cc1ccncc1)C(=O)O; Aib = CC(C)(N)C(=O)O; βAla = NCCC(=O)O

T1: rat NPRA (rat, UniProt P18910 29-1057)
T1 sequence (looked up): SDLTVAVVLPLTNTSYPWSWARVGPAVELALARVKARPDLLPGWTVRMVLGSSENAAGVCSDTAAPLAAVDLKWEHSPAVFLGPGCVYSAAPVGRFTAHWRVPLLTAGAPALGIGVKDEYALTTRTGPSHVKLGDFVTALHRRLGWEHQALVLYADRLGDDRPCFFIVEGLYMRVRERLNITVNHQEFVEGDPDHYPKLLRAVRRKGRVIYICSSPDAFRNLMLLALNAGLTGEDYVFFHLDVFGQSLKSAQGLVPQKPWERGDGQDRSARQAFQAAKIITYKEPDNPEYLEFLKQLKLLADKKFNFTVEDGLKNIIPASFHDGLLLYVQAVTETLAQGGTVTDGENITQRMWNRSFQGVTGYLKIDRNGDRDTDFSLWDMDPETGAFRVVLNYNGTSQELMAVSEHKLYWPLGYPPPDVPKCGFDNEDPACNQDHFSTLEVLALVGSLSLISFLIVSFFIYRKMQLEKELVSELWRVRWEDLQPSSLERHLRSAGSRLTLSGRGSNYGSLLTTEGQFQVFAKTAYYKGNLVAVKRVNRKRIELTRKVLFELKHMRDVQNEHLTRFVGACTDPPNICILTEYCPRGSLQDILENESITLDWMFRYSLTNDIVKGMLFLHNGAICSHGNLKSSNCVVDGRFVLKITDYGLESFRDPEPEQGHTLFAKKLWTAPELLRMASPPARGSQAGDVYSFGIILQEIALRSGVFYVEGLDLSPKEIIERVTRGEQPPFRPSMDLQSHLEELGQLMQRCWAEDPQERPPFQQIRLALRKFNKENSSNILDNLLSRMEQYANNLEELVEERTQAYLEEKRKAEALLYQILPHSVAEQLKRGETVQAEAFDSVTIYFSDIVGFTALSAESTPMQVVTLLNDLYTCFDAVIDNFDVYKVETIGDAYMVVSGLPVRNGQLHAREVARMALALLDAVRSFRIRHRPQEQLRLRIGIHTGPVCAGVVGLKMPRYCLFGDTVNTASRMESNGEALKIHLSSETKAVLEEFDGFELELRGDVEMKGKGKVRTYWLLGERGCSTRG

T2: human NPRA (human, UniProt P16066 33-1061)
T2 sequence (looked up): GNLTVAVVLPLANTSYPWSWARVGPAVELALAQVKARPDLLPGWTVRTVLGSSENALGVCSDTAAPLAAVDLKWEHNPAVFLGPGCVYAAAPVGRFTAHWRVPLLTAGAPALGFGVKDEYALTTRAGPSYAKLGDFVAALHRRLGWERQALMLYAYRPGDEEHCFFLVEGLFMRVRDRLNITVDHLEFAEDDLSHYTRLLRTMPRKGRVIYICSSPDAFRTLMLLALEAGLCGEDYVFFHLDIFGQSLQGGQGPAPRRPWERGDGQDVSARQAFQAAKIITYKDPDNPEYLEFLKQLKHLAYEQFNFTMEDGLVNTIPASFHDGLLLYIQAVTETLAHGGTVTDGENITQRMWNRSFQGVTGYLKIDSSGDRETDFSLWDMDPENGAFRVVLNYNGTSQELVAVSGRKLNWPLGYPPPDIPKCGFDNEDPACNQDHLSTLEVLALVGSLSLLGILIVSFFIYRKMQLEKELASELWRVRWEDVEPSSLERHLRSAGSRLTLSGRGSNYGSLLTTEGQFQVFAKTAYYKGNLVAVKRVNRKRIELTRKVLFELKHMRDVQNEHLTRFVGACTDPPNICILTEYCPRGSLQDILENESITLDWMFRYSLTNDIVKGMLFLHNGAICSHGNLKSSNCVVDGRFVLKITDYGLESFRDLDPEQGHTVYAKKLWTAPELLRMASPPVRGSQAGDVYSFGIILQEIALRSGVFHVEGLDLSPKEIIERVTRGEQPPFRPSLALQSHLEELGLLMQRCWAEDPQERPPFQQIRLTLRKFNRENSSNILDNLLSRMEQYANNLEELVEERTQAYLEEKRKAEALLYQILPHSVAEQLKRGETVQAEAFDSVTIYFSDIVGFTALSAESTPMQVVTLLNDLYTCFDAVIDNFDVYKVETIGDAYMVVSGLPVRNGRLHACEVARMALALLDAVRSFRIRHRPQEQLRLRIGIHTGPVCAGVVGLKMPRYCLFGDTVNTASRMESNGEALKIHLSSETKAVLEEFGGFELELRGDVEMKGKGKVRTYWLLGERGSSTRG

B1: Example 2 (peptide)
peptide: XEKEKEKGSXRRSSCFGGRIDRIGHQSGLGCPSFRHGGPSSGAPPPS
modifications: HOOC-(CH2)18-CO-(γGlu)-EKEKEKGS-4Pal-RRSS[CFGGRIDRIGHQSGLGC]PSFRHGGPSSGAPPPS-NH2; thioacetal linkage between the bracketed Cys
B2: Example 61 (peptide)
peptide: SXRRSSCFGGRIDRIGHQSGLGCPSFRHGGPSSGAPPPS
modifications: HOOC-(CH2)18-CO-(γGlu)-EKEKEKG-PEG24-S-4Pal-RRSS[CFGGRIDRIGHQSGLGC]PSFRHGGPSSGAPPPS-NH2; thioacetal linkage between the bracketed Cys

biological target: T1, rat NPRA; test: cell-based or functional assay

Binder | cGMP Assay (EC50, pM) w/BSA | cGMP Assay (EC50, pM) w/Casein
B1 | 1.27e+06 pM | 14100 pM
B2 | 463000 pM | 32000 pM
{C20 diacid}-[γGlu]EKEKEKGEK[βAla]RSSCFGGRIDRIGHYSGLGCPSFRHGGKSSGAPPPS-NH2 (bridge 15-31 via thioacetal) [Example 74] | 1.13e+06 pM | 5820 pM
{C20 diacid}-[γGlu]EKEKEKGKE[βAla]RSSCFGGRIDRIGHYSGLGCPSFRHGGPSSGAPPPS-NH2 (bridge 15-31 via thioacetal) [Example 58] | 1.38e+06 pM | 7150 pM
{C20 diacid}-[γGlu]EKEKEKGEK[βAla]RSSCFGGRIDRIGHYSGLGCPSFRHGGPSSGAPPPS-NH2 (disulfide 15-31) [Example 54] | 77200 pM | 796 pM
{C16 diacid}-[γGlu]EKEKEKGEK[βAla]RSSCFGGRIDRIGHYSGLGCPSFRHGGKSSGAPPPS-NH2 (bridge 15-31 via thioacetal) [Example 73] | 76400 pM | 26000 pM
{C20 diacid}-[γGlu]EKEKEKGEK[βAla]RSSCFGGRIDRIGHYSGLGCPSFRHGPSSGAPPPS-NH2 (bridge 15-31 via thioacetal) [Example 60] | 962000 pM | 4830 pM
{C20 diacid}-[γGlu]EKEKEKGS[4Pal]RRSSCFGGRIDRIGHQSGLGCPSFRHGGKSSGAPPPS-NH2 (bridge 15-31 via thioacetal) [Example 72] | 1.07e+06 pM | 40500 pM
{C20 diacid}-[γGlu]EKEKEKGEK[βAla]RSSCFGGRIDRIGHYSGLGCPSFRHGGPSSGAPPPS-NH2 (bridge 15-31 via thioacetal) [Example 56] | 1.38e+06 pM | 11200 pM
{C20 diacid}-[γGlu]EKEKEKGS[4Pal]RRSSCFGGRIDRIGHQSGLGCPSFRHGGPPS[Aib]KPPPK-NH2 (bridge 15-31 via thioacetal) [Example 71] | 594000 pM | 21000 pM
{C20 diacid}-[γGlu]EKEKEKGEKGRSSCFGGRIDRIGHYSGLGCPSLRHGGPSSGAPPPS-NH2 (disulfide 15-31) [Example 51] | 82700 pM | 909 pM

biological target: T2, human NPRA; test: cell-based or functional assay

Binder | cGMP Assay (EC50, pM) w/BSA | cGMP Assay (EC50, pM) w/Casein
B1 | 93400 pM | 1020 pM
B2 | 9000 pM | 912 pM
{C20 diacid}-[γGlu]EKEKEKGEK[βAla]RSSCFGGRIDRIGHYSGLGCPSFRHGGKSSGAPPPS-NH2 (bridge 15-31 via thioacetal) [Example 74] | 171000 pM | 1590 pM
{C20 diacid}-[γGlu]EKEKEKGKE[βAla]RSSCFGGRIDRIGHYSGLGCPSFRHGGPSSGAPPPS-NH2 (bridge 15-31 via thioacetal) [Example 58] | 104000 pM | 1220 pM
{C20 diacid}-[γGlu]EKEKEKGEK[βAla]RSSCFGGRIDRIGHYSGLGCPSFRHGGPSSGAPPPS-NH2 (disulfide 15-31) [Example 54] | 19300 pM | 369 pM
{C16 diacid}-[γGlu]EKEKEKGEK[βAla]RSSCFGGRIDRIGHYSGLGCPSFRHGGKSSGAPPPS-NH2 (bridge 15-31 via thioacetal) [Example 73] | 5820 pM | 1230 pM
{C20 diacid}-[γGlu]EKEKEKGEK[βAla]RSSCFGGRIDRIGHYSGLGCPSFRHGPSSGAPPPS-NH2 (bridge 15-31 via thioacetal) [Example 60] | 81700 pM | 453 pM
{C20 diacid}-[γGlu]EKEKEKGS[4Pal]RRSSCFGGRIDRIGHQSGLGCPSFRHGGKSSGAPPPS-NH2 (bridge 15-31 via thioacetal) [Example 72] | 46400 pM | 588 pM
{C20 diacid}-[γGlu]EKEKEKGEK[βAla]RSSCFGGRIDRIGHYSGLGCPSFRHGGPSSGAPPPS-NH2 (bridge 15-31 via thioacetal) [Example 56] | 145000 pM | 855 pM
{C20 diacid}-[γGlu]EKEKEKGS[4Pal]RRSSCFGGRIDRIGHQSGLGCPSFRHGGPPS[Aib]KPPPK-NH2 (bridge 15-31 via thioacetal) [Example 71] | – | 594 pM
{C20 diacid}-[γGlu]EKEKEKGEKGRSSCFGGRIDRIGHYSGLGCPSLRHGGPSSGAPPPS-NH2 (disulfide 15-31) [Example 51] | 11100 pM | 361 pM
